The target of the data set is ILF3 dsRBD;hnRNPC dsRBD (Homo sapiens;Homo sapiens, UniProt Q12906;P07910 398-590;16-57, |). As to the kind of experiment: EMSA; both proteins pooled; simultaneous binding; 1 uM labelled RNA, 3 uM protein, 10 ul, on ice 45 min; 6% PAGE in 0.5x TBE (gel pre-run at 4 C); binding buffer, salt and pH not stated (proteins dialyzed in 25 mM Tris-HCl pH 8.0, 150 mM NaCl; final elution from cation exchange/heparin up to 1 M NaCl, then SEC). The following applies: protein: recombinant;recombinant, tags: N-terminal GST (pGood6p), removed with TEV;10xHis (pSUMOH10), label: 5' DY781. A general note: A gel shift assay detects complexes by their altered migration in electrophoresis.

For the molecule AGUGGCUUAUGCCUGUGAUCCCAACAC (ssRNA, A-to-I editing site represented by G as printed (A/G); inosine not stated) [edited RNA], the binding result is “binds”.

These data come from PMC9351184, “Survey of the binding preferences of RNA-binding proteins to RNA editing events”.
